Reference: patent US20080181886A1 (Genentech, published 2008)
Where a chain is given by its changes, count along the chain named.

B1: TACI_d2 F78R (receptor)
chain: SLSCRKEQGKRYDHLLRDCISCASICGQHPKQCAYFCENKLR
notes: phage library variant, format as m9
B2: TACI_d2 R84I (receptor)
chain: B1 chain with R11F, R17I
notes: as for B1
B3: TACI_d2 R84H (receptor)
chain: B1 chain with R11F, R17H
notes: as for B1
B4: TACI_d2 I92P (receptor)
chain: B1 chain with R11F, I25P
notes: as for B1
B5: TACI_d2 R84S (receptor)
chain: B1 chain with R11F, R17S
notes: as for B1
B6: TACI_d2 R84E (receptor)
chain: B1 chain with R11F, R17E
notes: as for B1
B7: TACI_d2 R84L (receptor)
chain: B1 chain with R11F, R17L
notes: as for B1
B8: TACI_d2 I92K (receptor)
chain: B1 chain with R11F, I25K
notes: as for B1
B9: TACI_d2 R84N (receptor)
chain: B1 chain with R11F, R17N
notes: as for B1
B10: TACI_d2 R84D (receptor)
chain: B1 chain with R11F, R17D
notes: as for B1
B11: TACI_d2 I92N (receptor)
chain: B1 chain with R11F, I25N
notes: as for B1
B12: TACI_d2 R84C (receptor)
chain: B1 chain with R11F, R17C
notes: as for B1
B13: TACI_d2 R84Q (receptor)
chain: B1 chain with R11F, R17Q
notes: as for B1
B14: TACI_d2 I92L (receptor)
chain: B1 chain with R11F, I25L
notes: as for B1
B15: TACI_d2 F78Y (receptor)
chain: B1 chain with R11Y
notes: as for B1
B16: TACI_d2 I92R (receptor)
chain: B1 chain with R11F, I25R
notes: as for B1
B17: TACI_d2 R84M (receptor)
chain: B1 chain with R11F, R17M
notes: as for B1
B18: TACI_d2 R84W (receptor)
chain: B1 chain with R11F, R17W
notes: as for B1
B19: TACI_d2 I92H (receptor)
chain: B1 chain with R11F, I25H
notes: as for B1
B20: TACI_d2 Y79C (receptor)
chain: B1 chain with R11F, Y12C
notes: as for B1
B21: TACI_d2 I92D (receptor)
chain: B1 chain with R11F, I25D
notes: as for B1
B22: TACI_d2 R84V (receptor)
chain: B1 chain with R11F, R17V
notes: as for B1
B23: TACI_d2 R84T (receptor)
chain: B1 chain with R11F, R17T
notes: as for B1
B24: TACI_d2 I92G (receptor)
chain: B1 chain with R11F, I25G
notes: as for B1
B25: TACI_d2 R84Y (receptor)
chain: B1 chain with R11F, R17Y
notes: as for B1
B26: TACI_d2 R84K (receptor)
chain: B1 chain with R11F, R17K
notes: as for B1
B27: TACI_d2 I92M (receptor)
chain: B1 chain with R11F, I25M
notes: as for B1
B28: TACI_d2 R84F (receptor)
chain: B1 chain with R11F, R17F
notes: as for B1
B29: TACI_d2 I92F (receptor)
chain: B1 chain with R11F, I25F
notes: as for B1
B30: TACI_d2 Y79E (receptor)
chain: B1 chain with R11F, Y12E
notes: as for B1
B31: TACI_d2 I92C (receptor)
chain: B1 chain with R11F, I25C
notes: as for B1
B32: TACI_d2 I92Q (receptor)
chain: B1 chain with R11F, I25Q
notes: as for B1
B33: TACI_d2 F78W (receptor)
chain: B1 chain with R11W
notes: as for B1
B34: TACI_d2 I92S (receptor)
chain: B1 chain with R11F, I25S
notes: as for B1
B35: TACI_d2 I92Y (receptor)
chain: B1 chain with R11F, I25Y
notes: as for B1
B36: TACI_d2 I92E (receptor)
chain: B1 chain with R11F, I25E
notes: as for B1
B37: TACI_d2 Y79F (receptor)
chain: B1 chain with R11F, Y12F
notes: as for B1
B38: TACI_d2 F78T (receptor)
chain: B1 chain with R11T
notes: as for B1
B39: TACI_d2 I92W (receptor)
chain: B1 chain with R11F, I25W
notes: as for B1

These binders were tested against T1, Murine APRIL (mouse, UniProt Q9D777 105-241, limits assumed) (assay: NNS library, phage display;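 also: ligand versus display occurrence-to-degeneracy ratio and higher means enriched by binding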).
T1 sequence (looked up): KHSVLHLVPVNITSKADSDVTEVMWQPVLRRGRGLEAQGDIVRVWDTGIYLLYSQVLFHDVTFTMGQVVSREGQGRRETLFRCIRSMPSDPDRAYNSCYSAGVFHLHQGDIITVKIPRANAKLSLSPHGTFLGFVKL
Experimental: (§1) This new phage library was subjected to sorting against either BAFF, APRIL or the display target antibody. After 3 rounds of sorting, approximately 48 clones were picked from each selection and the DNA sequences of the phage clones were determined. […] The normalized F′ value corrects for display bias and is calculated as the percent occurrence to percent degeneracy ratio for ligand selection divided by the percent occurrence to percent degeneracy ratio for display efficiency. Percent occurrence is calculated by dividing the number of times a particular amino acid appeared at a particular position by the total number of amino acids sequenced at that position followed by multiplying by 100. Percent degeneracy is calculated by dividing the degeneracy in code for a particular amino acid divided by the total degeneracy possible at that position followed by multiplying by 100 (e.g., if only A, G and I were selected, total degeneracy possible would be 5).

| Binder | F' APRIL |
| --- | --- |
| B1 | 0 |
| B2 | 0 |
| B3 | 0 |
| B4 | 0 |
| B5 | 0 |
| B6 | 3 |
| B7 | 3 |
| B8 | 0 |
| B9 | 0 |
| B10 | 9 |
| B11 | 0 |
| B12 | 0 |
| B13 | 0 |
| B14 | 2 |
| B15 | 61 |
| B16 | 0 |
| B17 | 18 |
| B18 | 9 |
| B19 | 0 |
| B20 | 0 |

| Binder | F' APRIL |
| --- | --- |
| B21 | 0 |
| B22 | 4 |
| B23 | 0 |
| B24 | 0 |
| B25 | 0 |
| B26 | 0 |
| B27 | 0 |
| B28 | 9 |
| B29 | 0 |
| B30 | 8 |
| B31 | 0 |
| B32 | 0 |
| B33 | 0 |
| B34 | 0 |
| B35 | 0 |
| B36 | 0 |
| B37 | 4 |
| B38 | 1 |
| B39 | 0 |

The binders below were run against human BAFF (human, UniProt Q9Y275 82-285, limits assumed) (assay: NNS library, phage display;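 also: ligand versus display occurrence-to-degeneracy ratio and higher means enriched by binding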).
Sequence of human BAFF (Q9Y275 82-285 limits assumed): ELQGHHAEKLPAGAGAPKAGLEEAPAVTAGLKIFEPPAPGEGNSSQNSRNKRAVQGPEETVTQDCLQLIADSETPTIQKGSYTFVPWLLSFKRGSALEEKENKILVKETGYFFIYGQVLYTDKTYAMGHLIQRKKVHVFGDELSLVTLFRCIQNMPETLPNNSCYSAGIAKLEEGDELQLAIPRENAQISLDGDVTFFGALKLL
Experimental: as §1

| Binder | F' BAFF |
| --- | --- |
| B1 | 0 |
| B2 | 0 |
| B3 | 1 |
| B4 | 0 |
| B5 | 0 |
| B6 | 0 |
| B7 | 2 |
| B8 | 0 |
| B9 | 1 |
| B10 | 0 |
| B11 | 0 |
| B12 | 0 |
| B13 | 0 |
| B14 | 0 |
| B15 | 41 |
| B16 | 0 |
| B17 | 7 |
| B18 | 0 |
| B19 | 0 |
| B20 | 0 |

| Binder | F' BAFF |
| --- | --- |
| B21 | 0 |
| B22 | 2 |
| B23 | 3 |
| B24 | 0 |
| B25 | 1 |
| B26 | 1 |
| B27 | 0 |
| B28 | 7 |
| B29 | 0 |
| B30 | 0 |
| B31 | 0 |
| B32 | 0 |
| B33 | 0 |
| B34 | 0 |
| B35 | 0 |
| B36 | 0 |
| B37 | 5 |
| B38 | 0 |
| B39 | 0 |
